The nature of series [1]: sfGFP reporter fluorescence (15 h) (µM FITC); higher = stronger transcriptional activation. As to conditions: library round: Round 0. Here is the method:
(§1)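 Cell-free (BL21 Star DE3 extract, PANOx-SP) biosensing: 1 µL Echo-assembled reactions with linear PbrR variant templates (5 nM) and pPbrR-sfGFP reporter, with 1 µM Pb (lead chloride), 30 µM Zn (zinc acetate) or no ligand; endpoint sfGFP fluorescence after 15 h at 30 °C, calibrated as µM FITC. Round 0 library (alanine scan, site saturation, combinatorial) of PbrR from Cupriavidus metallidurans; 2 biological replicates.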

Series [2] in a line: sfGFP reporter fluorescence (15 h) (µM FITC); higher = higher leak. As to conditions: library round: Round 0; ligand: none. The protocol:
as §1

± gives the standard deviation of the averaged measurements.

For “MNIQIGELAKRTACPVVTIRFYEQEGLLPPPGRSRGNFRLYGEEHVERLQFIRHCRSLDMPLSDVRTLLSYRKRPDQDCGEVNMLLDEHIRQVESRIGALLELKHHLVELREACSGARPAQSCGILQGLSDCVCDTRGTTAHPSDA [*146A]”, the sfGFP reporter fluorescence in series [1] (ligand: 1 µM Pb) is 0.0918 ± 0.006; in series [1] (ligand: 30 µM Zn), 0.671 ± 0.0096; in series [2] it was 0.06121 ± 0.00052.

The values are drawn from the supplement of paper PMC12783771.
